In the RNAGym collection of RNA variant scans (doi:10.1021/acssynbio.7b00057):

B1: Pistol ribozyme (parent)
chain: GGGUCGUUGUUCCAUAAUCGCGUGGAUAUGGCACGCAAGUUUCUACCGGGCACCGUAAAUGUCCGACUGGAGCCGUUCGGGCGGCUAUAAACAGACCUCAGGCCCGAAGCGUGGCGGCACCUGCCGCCGGUGGUAAAAAAGAUCGGAAGAGCACACGUCU

Variants of: B1
Assay: aptazyme ON/OFF ratio, guanine; higher = stronger switching; co-transcriptional cleavage with and without guanine

| Variant | aptazyme ON/OFF ratio |
| --- | --- |
| U7A U8A U10C C12U C13G | 1.07 |
| U7C U11A C13G | 1.04 |
| U8C G9C U10G C12A C13A | 1.13 |
| U7C U8C U10G C12G | 1.12 |
| U7C U8A G9U U10C U11C C13G | 1.03 |
| U7A U8C U10C U11C C12U C13U | 1.07 |
| U7A U8C G9U U11A C12A C13G | 1.24 |
| U8G G9C U10A U11C C12A C13G | 1.07 |
| U7G U8A G9A U10G U11C C12U C13G | 1.12 |
| U7A G9U U11C C12A C13G | 1.16 |
| U8A U11C C13U | 1.09 |
| U8C G9U U10C C12A C13U | 1.19 |
| U8G G9U U11C C12G | 1.12 |
| U7C U8C G9U U10A C12G C13U | 1.08 |
| U7A U8A G9C U10C U11A C12G | 1.06 |
| U7G U8A G9U U11G C12U | 1.23 |
| U7A U8A G9C U10A U11G C12A | 1.05 |
| U7A U8G G9C U11A C13U | 1.36 |
| U8G U10G U11A C12A C13A | 1.18 |
| U8G G9U U11C | 1.24 |
| U7A G9A U11G C12U C13A | 1.34 |
| U7C U8G G9C U10C C12G C13U | 1.1 |
| U7A U8G G9U U10C U11C C12A C13G | 1.32 |
| U7C G9C C12G | 1.04 |

| Variant | aptazyme ON/OFF ratio |
| --- | --- |
| U8C U10A U11G C12U C13U | 1.27 |
| U7A G9U C12A C13U | 1.28 |
| U7G U8C G9A U11G C12G C13G | 1.08 |
| U7A U8G G9U U10C U11G C12G C13G | 1.26 |
| U8G G9C U10G U11C C12G C13A | 1.08 |
| U10C C12A C13A | 1.23 |
| U8C U10A U11C C13G | 1.04 |
| U7G U8A G9U U10G C12G C13U | 1.12 |
| G9U U10G U11C C12G C13A | 1.27 |
| U10C C12G | 1.36 |
| U7A U8G G9A U10G U11C C12G C13G | 1.23 |
| U8A G9C U10C C13G | 1.01 |
| U8C U11G C12G C13A | 1.13 |
| U8G G9U U10G U11A C12G | 1.06 |
| U7C G9A U10C U11G C12A C13U | 1.08 |
| U7A U8C G9C U10C U11A C12U C13A | 1.04 |
| U7G U8C G9U U11A C13U | 1.56 |
| U7C U8A U10C C12G | 1.63 |
| U8C G9U U10A U11A C13A | 1.15 |
| U7A U10G C12G | 1.36 |
| U7C U8C G9C U11A C12A C13U | 1.13 |
| U8G G9C U10G U11G C12A C13G | 1.15 |
| U7A U8C U11G | 1.37 |
| U8C G9C U10G U11C C13G | 1.22 |

| Variant | aptazyme ON/OFF ratio |
| --- | --- |
| U7G U8C G9A U10C U11G C13U | 1.24 |
| U7C G9U U10A U11C C12A C13G | 1.14 |
| G9A U11C C12U C13A | 1.41 |
| U7G G9A U10C U11C C13A | 1.04 |
| U7C U8A C12U | 1.68 |
| U8C U10G C12G C13U | 1.12 |
| U7A U8C G9C U10C U11G C12U C13G | 1.11 |
| U8A U10C C13A | 1.05 |
| U8C G9U U10A U11C C12U C13U | 1.23 |
| G9U U10C C12A C13U | 1.38 |
| U7A U8C G9C U10G U11C C12G C13A | 1.18 |
| U7C U8A G9A U10G U11A C13G | 1.05 |
| U7G U8G U10A C13A | 1.34 |
| U7A U8A G9U U10A C12U | 1.16 |
| U7C U8C G9A U10C C12A C13G | 1.2 |
| U8A G9U U10G U11C C12A | 1.04 |
| U7G U10G U11A C12A C13G | 1.09 |
| U7G G9A U11A C13G | 1.1 |
| G9A U11C C12A C13A | 1.06 |
| U8G G9U U10C U11C C12U C13A | 1.02 |
| U7G U8C G9A U10C U11G C12U C13U | 1.18 |
| U7C G9A U10C U11C C12G | 1.2 |
| U7G G9A U10A U11C C12A C13A | 1.13 |
| U7G U8C G9A U11G C13G | 1.09 |

| Variant | aptazyme ON/OFF ratio |
| --- | --- |
| U7C U8C U10A U11G C12A C13A | 1.06 |
| U7G G9U U10C C12U C13A | 1.38 |
| U7C U8A G9U U10C C12U C13G | 1.12 |
| U7G U8A U11C C12A | 1.29 |
| U7G G9A U10A U11A C12G | 1.2 |
| U7G U8A G9C U10C C13U | 1.04 |
| U7G U8A C12U C13A | 1.43 |
| U7G U8G G9A U10G C12U C13U | 1.17 |
| U7G U8A G9C U10G U11G | 1.14 |
| U7G U8C G9A U10C U11G C12A C13G | 1.08 |
| U7A U8A G9U C13A | 1.16 |
| U7G U8G G9A | 3.82 |
| U8A G9C U11A C13U | 1.16 |
| U7G U8C G9C U10A C13G | 1.07 |
| U7C U8C G9A U11C C12A C13U | 1.38 |
| U7A G9A U11A | 1.46 |
| U7G U10C U11G C12A C13G | 1.07 |
| U7A U8C G9C U10A U11G C12U | 1.19 |
| U7G U8A G9A U10A C12G C13U | 1.1 |
| U7C U8A G9U U10C U11A C12U C13U | 1.15 |
| U7G G9U U11A C12G C13U | 1.36 |
| U7C U8C G9A U10A U11G C12U | 1.35 |
| U8C G9C U10A U11A C12A C13U | 1.08 |
| U7A U8A G9U U10G C12G | 1.16 |

| Variant | aptazyme ON/OFF ratio |
| --- | --- |
| U7G U8A G9U U10A U11G C12U C13G | 1.08 |
| U7C U8G G9C U10G U11C C12G C13U | 1.24 |
| U7G U8G U10G U11A C12U C13A | 1.33 |
| U7G U8G G9U U10G U11C C12G C13A | 1.1 |
| U7G G9U U10G U11G C12A | 1.11 |
| U7C U8C G9U U10G U11A C12G C13G | 1.18 |
| U8A G9U U11G C13A | 1.14 |
| U7C U8A G9A U10G C13U | 1.39 |
| U7G U8G U10G U11C C12A C13U | 1.46 |
| U7C G9U U10G C12A C13A | 1.09 |
| U7A U8A U10A U11G C12U C13A | 1.34 |
| U7C U8A G9A U10A U11C C12U C13A | 1.09 |
| U8C G9A U10G U11A C12G C13G | 1.35 |
| U7C G9A C12U | 1.16 |
| U8C G9A U10C U11C C12U C13G | 1.03 |
| U8A U10C U11G C13G | 1.13 |
| U7C G9U U10C C12U C13G | 1.05 |
| U7C U10A U11A C12U C13U | 1.27 |
| U7A U8A G9A U11G C13U | 1.29 |
| U7A U8A G9A U11G C13G | 1.14 |
| U7C U8G G9A U10G U11G C12U C13A | 1.42 |
| U7A U8C G9A U10G U11C C13G | 1.06 |
| U7C U8C G9U U10G | 1.42 |
| U7G G9A U10G U11G C12A | 1.1 |

| Variant | aptazyme ON/OFF ratio |
| --- | --- |
| U7C U8G G9U U11A C12G | 1.18 |
| U7G U8G G9U U10G U11G C12U C13G | 1.12 |
| U7C U8A G9U U11G C12A C13G | 1.16 |
| U7C U8A U10C U11G C12G C13A | 1.15 |
| U7A G9C U10A C12U C13G | 1.11 |
| U8A G9A U10C U11C C12U C13A | 1.04 |
| U7C U8A U11A C12G C13U | 1.12 |
| U8C G9C U11A C12G | 1.18 |
| U7G U8C G9A U10G C12G C13U | 1.15 |
| U7A U8A G9U U10A C12A C13G | 1.24 |
| U7G G9C U10C U11A C12A C13A | 1.21 |
| U7A U8A C12A C13U | 1.5 |
| U7A U8A G9C C12A C13U | 1.24 |
| U7C G9C U11A C13G | 1.04 |
| U7G G9C U10C U11A C12U C13U | 1.32 |
| U7C U8A G9C U10A U11C C13A | 1.06 |
| U7G U8G G9U U10A C12G C13U | 1.13 |
| U8C U10A U11G C12G C13A | 1.43 |
| U7A G9A U10A C12U C13U | 1.2 |
| U7C G9C U10G U11C C12G | 1.25 |
| U7A U8G G9A U10C C12U C13A | 1.17 |
| U8C G9A U10C U11G C13U | 1.35 |
| U7C U8C G9C U11C C13G | 1.04 |
| U7C U8A G9C U10A U11C C12U C13G | 1.1 |

| Variant | aptazyme ON/OFF ratio |
| --- | --- |
| U7C U8A G9A U11C C12A C13A | 1.15 |
| U7A U8C G9U U10C U11A C12A | 1.14 |
| U7A U8A G9U U10G U11C C12U C13G | 1.22 |
| U7G G9C U11G C12U C13A | 1.43 |
| U8A U10A U11C C12U C13A | 1.08 |
| U7G U8A | 1.54 |
| U7A U8G G9A U10C U11C C12U C13U | 1.07 |
| U7A U8A U10A U11A C12G C13G | 1.45 |
| U8G G9U U10C U11G C12G C13U | 1.08 |
| U7A U8G G9A U10G U11C | 1.01 |
| U7G G9C U10G C12A C13U | 1.25 |
| U7G G9A U10A U11C C12U C13G | 1.15 |
| U7G U8C G9A U10C C12A | 1.18 |
| U7A U8A G9U U11A C12A C13A | 1.04 |
| U7G G9A U10C U11G C12U C13G | 1.11 |
| U8G G9U U11G C12G C13U | 1.22 |
| U7G U8G G9A U10C C12A C13G | 1.14 |
| U7A U8C G9C U10A U11C C12U C13A | 1.05 |
| U7A U8G G9C U10G U11G C13A | 1.19 |
| U7C G9U U11G C12U | 1.47 |
| U7G U8G U10G U11C C12G C13A | 1.29 |
| U8C G9C U11G C12G | 1.19 |
| U7G U8G G9A U10G U11C C12G C13U | 1.28 |
